System: T1, GST-rCtrA (Ehrlichia chaffeensis), ORF:1c7d897d
T1 sequence: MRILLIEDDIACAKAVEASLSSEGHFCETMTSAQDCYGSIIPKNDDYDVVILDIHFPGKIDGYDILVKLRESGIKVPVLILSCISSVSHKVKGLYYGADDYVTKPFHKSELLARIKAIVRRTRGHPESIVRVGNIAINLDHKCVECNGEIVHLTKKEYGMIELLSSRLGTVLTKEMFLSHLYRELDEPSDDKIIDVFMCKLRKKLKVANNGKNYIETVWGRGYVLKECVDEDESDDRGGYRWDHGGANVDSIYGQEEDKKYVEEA
Test: EMSA

## ATATAACCTAATAGTGACAAATAAATTAACAATAGTAGAAGTGTCATATAAAAGCAAGTCAGAATATAAATTTTTGTATAAAATATCGGTAACTTTTGTAAGGAAAATTTAATATATTACGTCAGGTAAGTAATAGCAAAAAAACTGGTTAAGTATAGTATCATGTGTAAAGGTGAGAAAAACAGCACTTATAAACTAGTCCCCCCCCCCCCCCTCTTATTGCTACATTCTTTTGCCACTATTTTTATTTACCTGCAGCA (double strand) [p28 promoter]
  binding: no binding

— publication PMC9005958
